According to publication PMC6821195, “The internal interaction in RBBP5 regulates assembly and activity of MLL1 methyltransferase complex” (Nucleic Acids Research, 2019):
Where a chain is given by its changes, count along the chain named. Names may count otherwise. Read-outs that look alike come from different tables or passages of the source.

T1: RBBP5 WD40 propeller (residues 2–333), Q15291
T1 chain: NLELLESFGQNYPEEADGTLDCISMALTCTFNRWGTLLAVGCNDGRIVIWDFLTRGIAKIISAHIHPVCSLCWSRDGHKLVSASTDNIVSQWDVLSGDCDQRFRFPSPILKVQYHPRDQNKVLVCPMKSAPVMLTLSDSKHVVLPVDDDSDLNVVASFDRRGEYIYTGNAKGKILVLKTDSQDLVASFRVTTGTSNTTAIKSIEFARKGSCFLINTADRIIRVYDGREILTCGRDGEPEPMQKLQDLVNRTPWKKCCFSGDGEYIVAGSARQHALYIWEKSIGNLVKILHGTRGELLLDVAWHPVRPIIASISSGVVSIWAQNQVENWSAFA

B1: RBBP5 C-terminal distal region (residues 381–538) (domain or fragment, human, UniProt Q15291 381-538, looked up)
chain: DPIAAFCSSDEELEDSKALLYLPIAPEVEDPEENPYGPPPDAVQTSLMDEGASSEKKRQSSADGSQPPKKKPKTTNIELQGVPNDEVHPLLGVKGDGKSKKKQAGRPKGSKGKEKDSPFKPKLYKGDRGLPLEGSAKGKVQAELSQPLTAGGAISELL
notes: also called RBBP5CTD; source: Rosetta cells, purified (Ni-NTA, on-beads Ulp1 digestion, SEC)
B2: RBBP5_(390–480d) (C-terminal distal region 390–480 with the 422–443 loop deletion) (domain or fragment, human, UniProt Q15291 390-480, looked up)
chain: DEELEDSKALLYLPIAPEVEDPEENPYGPPPDGSQPPKKKPKTTNIELQGVPNDEVHPLLGVKGDGKSK
notes: RBBP5, human, residues 390-480 with the loop 422-443 deleted; also called RBBP5_(CTDM); C-Terminal Distal Minimized; source: Rosetta cells, purified (Ni-NTA, on-beads Ulp1 digestion, SEC)
B3: RBBP5_(390–480d) (C-terminal distal region 390–480 with the 422–443 loop deletion), Q15291 L399A; L400A; I457A; L459A (protein)
chain: B2 chain with L10A, L11A, I46A, L48A
B4: RBBP5390-480d I457/L459A (protein)
chain: B2 chain with I46A, L48A
B5: RBBP5_(CTDM) (RBBP5_(390–480d)) I457A (domain or fragment, human, UniProt Q15291 390-480, looked up)
chain: B2 chain with I46A
notes: RBBP5, human, residues 390-480 with the loop 422-443 deleted, I457A; source: Rosetta cells, purified (Ni-NTA, on-beads Ulp1 digestion, SEC)
B6: RBBP5_(CTDM) (RBBP5_(390–480d)) L400A (domain or fragment, human, UniProt Q15291 390-480, looked up)
chain: B2 chain with L11A
notes: RBBP5, human, residues 390-480 with the loop 422-443 deleted, L400A; source: Rosetta cells, purified (Ni-NTA, on-beads Ulp1 digestion, SEC)
B7: RBBP5_(CTDM) (RBBP5_(390–480d)) L470A (domain or fragment, human, UniProt Q15291 390-480, looked up)
chain: B2 chain with L59A
notes: RBBP5, human, residues 390-480 with the loop 422-443 deleted, L470A; source: Rosetta cells, purified (Ni-NTA, on-beads Ulp1 digestion, SEC)
B8: RBBP5_(CTDM) (RBBP5_(390–480d)) L399A (domain or fragment, human, UniProt Q15291 390-480, looked up)
chain: B2 chain with L10A
notes: RBBP5, human, residues 390-480 with the loop 422-443 deleted, L399A; source: Rosetta cells, purified (Ni-NTA, on-beads Ulp1 digestion, SEC)
B9: RBBP5_(CTDM) (RBBP5_(390–480d)) L459A (domain or fragment, human, UniProt Q15291 390-480, looked up)
chain: B2 chain with L48A
notes: RBBP5, human, residues 390-480 with the loop 422-443 deleted, L459A; source: Rosetta cells, purified (Ni-NTA, on-beads Ulp1 digestion, SEC)
B10: RBBP5 390-474 (protein)
chain: DEELEDSKALLYLPIAPEVEDPEENPYGPPPDAVQTSLMDEGASSEKKRQSSADGSQPPKKKPKTTNIELQGVPNDEVHPLLGVK
B11: RBBP5 404-538 (protein)
chain: IAPEVEDPEENPYGPPPDAVQTSLMDEGASSEKKRQSSADGSQPPKKKPKTTNIELQGVPNDEVHPLLGVKGDGKSKKKQAGRPKGSKGKEKDSPFKPKLYKGDRGLPLEGSAKGKVQAELSQPLTAGGAISELL
B12: RBBP5_(393–480) construct (domain or fragment, human, UniProt Q15291 393-480, looked up)
chain: LEDSKALLYLPIAPEVEDPEENPYGPPPDAVQTSLMDEGASSEKKRQSSADGSQPPKKKPKTTNIELQGVPNDEVHPLLGVKGDGKSK
notes: RBBP5, human, residues 393-480; source: Rosetta cells, purified (Ni-NTA, on-beads Ulp1 digestion, SEC)
B13: RBBP5 WD40 propeller (residues 2–333) (domain or fragment)
chain: T1 chain
B14: RBBP5 C-terminal construct (390–480) (domain or fragment, human, UniProt Q15291 390-480, looked up)
chain: DEELEDSKALLYLPIAPEVEDPEENPYGPPPDAVQTSLMDEGASSEKKRQSSADGSQPPKKKPKTTNIELQGVPNDEVHPLLGVKGDGKSK
notes: RBBP5, human, residues 390-480; also called RBBP5_(390–480); source: Rosetta cells, purified (Ni-NTA, on-beads Ulp1 digestion, SEC)
B15: RBBP5 381-480 (protein)
chain: DPIAAFCSSDEELEDSKALLYLPIAPEVEDPEENPYGPPPDAVQTSLMDEGASSEKKRQSSADGSQPPKKKPKTTNIELQGVPNDEVHPLLGVKGDGKSK
B16: RBBP5 390-467 (protein)
chain: DEELEDSKALLYLPIAPEVEDPEENPYGPPPDAVQTSLMDEGASSEKKRQSSADGSQPPKKKPKTTNIELQGVPNDEV

Tests used:
[1] = tested on: RBBP5 2-325 (Homo sapiens); test: fluorescence polarization; conditions: FP: 20 mM HEPES pH 7.4, 150 mM NaCl, 0.1% BSA, 0.1 uM DNA, 25 C, 30 min; EMSA: 20 mM Tris-HCl pH 8.0, 150 mM NaCl, 10% glycerol, 0.1 uM nucleosome, on ice 1 h …
[2] = tested on: RBBP5 full-length (Homo sapiens); test: fluorescence polarization; conditions: FP: 20 mM HEPES pH 7.4, 150 mM NaCl, 0.1% BSA, 0.1 uM DNA, 25 C, 30 min; EMSA: 20 mM Tris-HCl pH 8.0, 150 mM NaCl, 10% glycerol, 0.1 uM nucleosome, on ice 1 h …
[3] = tested on: RBBP5 CTD3 (Homo sapiens); test: fluorescence polarization; conditions: FP: 20 mM HEPES pH 7.4, 150 mM NaCl, 0.1% BSA, 0.1 uM DNA, 25 C, 30 min; EMSA: 20 mM Tris-HCl pH 8.0, 150 mM NaCl, 10% glycerol, 0.1 uM nucleosome, on ice 1 h …
[4] = target: B13; test: ITC
[5] = target: B13; test: ITC; 800 mM NaCl
[6] = target: T2, RBBP5 WD40 propeller (residues 2–333) (human, UniProt Q15291 2-333); test: ITC; RBBP5_(381–538) (1 mM) titrated into 0.1 mM RBBP5_(2–333); 150 mM NaCl, 25 mM Tris–HCl pH 8.0 (300 and 800 mM NaCl also tested); 20°C; one-site model; conditions: both partners purified
T2 construct: source: Rosetta cells, purified (Ni-NTA, on-beads Ulp1 digestion, SEC)

[7] = target: B13; test: ITC; 300 mM NaCl
[8] = target: T3, RBBP5 WD40 propeller with residues 10–325 (RBBP5_(10–325)) (human, UniProt Q15291 10-325, selenomethionine (Se-Met derivative protein)); test: crystal structure; RBBP5_(10–325) and RBBP5_(390–480d) mixed at 1:2 and purified by SEC; crystals in 0.1 M HEPES-Na pH 7.5, 2% PEG 400, 2.0 M ammonium sulfate, 16°C; Se-Met SAD, 1.8 Å; conditions: both partners purified
T3 construct: RBBP5, human, residues 10-325 (WD40 propeller); native and Se-Met complexes were both crystallised; the solved dataset is of the Se-Met crystal; also called SeMet RBBP5_(10–325); source: Rosetta cells (Se-Met derivative grown in M9 minimal media), purified (Ni-NTA, on-beads Ulp1 digestion, SEC)

[9] = target: T2, RBBP5 WD40 propeller (residues 2–333); test: ITC; RBBP5 C-terminal constructs, RBBP5_(390–480d) or its mutants (1 mM) injected into 0.1 mM RBBP5_(2–333); 300 mM NaCl, 25 mM Tris–HCl pH 8.0; 20°C; one-site model; conditions: both partners purified
[10] = target: T1, RBBP5 WD40 propeller (residues 2–333), …; test: ITC; conditions: chain shown with the change; 25mM Tris–HCl, 300 mM NaCl, pH 8.0
[11] = target: B13; test: ITC
[12] = target: T4, RBBP5_(390–480d) (C-terminal distal region 390–480 with the 422–443 loop deletion) (human, UniProt Q15291 390-480, 422–443 loop deletion); test: ITC
[13] = target: T4, RBBP5_(390–480d) (C-terminal distal …); test: ITC; remark: listed apart in the source

Molecule: FAM-labelled 167-bp dsDNA
Kd [1]: 35.1 µM
Kd [2]: 11.5 µM
Kd [3]: 13.3 µM

Molecule: B1
Kd [4]: 9.7 µM
Kd [5]: 24.6 µM
Kd [6]: 6.8 µM
Kd [7]: 9.7 µM

Molecule: B2
binding result [8]: binds
binding result [9]: binds

Molecule: B3
Kd [10]: 369 µM

Molecule: B4
Kd [11]: 108 µM

Molecule: B5
binding result [9]: binds

Molecule: B6
Kd [9]: ~70 µM
fold decrease in affinity against wild-type RBBP5_(CTDM) [9]: ~13 fold

Molecule: B7
Kd [10]: 19.1 µM
binding result [9]: binds

Molecule: B8
Kd [9]: ~70 µM
fold decrease in affinity against wild-type RBBP5_(CTDM) [9]: ~13 fold

Molecule: B9
binding result [9]: binds

Molecule: B10
Kd [4]: 11.7 µM

Molecule: B11
Kd [4]: 59.8 µM

Molecule: B12
Kd [4]: 20.3 µM
binding result [9]: binds

Molecule: B13
Kd [12]: 4.3 µM
Kd [13]: 5.2 µM

Molecule: B14
Kd [4]: 7.5 µM
binding result [9]: binds

Molecule: B15
Kd [4]: 9.6 µM

Molecule: B16
Kd [4]: 17.3 µM
